Experimental data from patent US20240132578A1.

Key:
Test in all cases: cell-based or functional assay
[1] = molecular target: HIV-1 Env of pseudovirus MGRM-F1-015 (HIV-1)
[2] = molecular target: HIV-1 Env of pseudovirus MGRM-D-013 (HIV-1)
[3] = molecular target: HIV-1 envelope glycoprotein (Env) of isolate MG RM-AG-012 (HIV-1)
[4] = molecular target: HIV-1 envelope glycoprotein (Env) of isolate MG RM-AG-009 (HIV-1)
[5] = molecular target: HIV-1 envelope glycoprotein (Env) of isolate MG RM-AG-006 (HIV-1)
[6] = molecular target: HIV-1 Env of isolate MGRM-F1-012 (HIV-1)
[7] = molecular target: HIV-1 Env of isolate MGRM-D-029 (HIV-1)
[8] = molecular target: HIV-1 Env of isolate MGRM-D-020 (pseudovirus) (HIV-1)
[9] = molecular target: HIV-1 Env of isolate MGRM-D-012 (pseudovirus) (HIV-1)
[10] = molecular target: HIV-1 Env of isolate MGRM-D-011 (pseudovirus) (HIV-1)
[11] = molecular target: HIV-1 JR-CSF Env W395A (HIV-1 (isolate JR-CSF)) (UniProt P20871)
[12] = molecular target: HIV-1 Env of isolate MGRM-A-002 (pseudovirus) (HIV-1)
[13] = molecular target: HIV-1 Env of pseudovirus isolate JR-FL (clade B) (HIV-1)
[14] = molecular target: HIV-1 Env of isolate MGRM-G-013 (subtype G) (HIV-1)
[15] = molecular target: HIV-1 Env of isolate MG RM-A-010 (pseudovirus) (HIV-1)
[16] = molecular target: HIV-1 Env of pseudovirus isolate MGRM-Chronic-B-008 (clade B) (HIV-1)
[17] = molecular target: HIV-1 Env of isolate MG RM-A-014 (pseudovirus) (HIV-1)
[18] = molecular target: HIV-1 Env of isolate MGRM-G-014 (subtype G) (HIV-1)
[19] = molecular target: HIV-1 Env of isolate MGRM-G-016 (subtype G) (HIV-1)
[20] = molecular target: HIV-1 Env of isolate MGRM-D-005 (HIV-1)
[21] = molecular target: HIV-1 92UG005 Env (HIV-1)
HIV-1 JRCSF Env (HIV-1) = HIV-1 JRCSF Env (HIV-1) (UniProt P20871)

PGT-143 (4980_N08) (antibody), sequence (VH): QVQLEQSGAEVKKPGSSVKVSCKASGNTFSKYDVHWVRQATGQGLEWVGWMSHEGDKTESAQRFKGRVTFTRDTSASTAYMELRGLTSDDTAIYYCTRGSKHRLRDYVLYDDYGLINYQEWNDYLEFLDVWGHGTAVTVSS
PGT-143 (4980_N08) (antibody), sequence (VL): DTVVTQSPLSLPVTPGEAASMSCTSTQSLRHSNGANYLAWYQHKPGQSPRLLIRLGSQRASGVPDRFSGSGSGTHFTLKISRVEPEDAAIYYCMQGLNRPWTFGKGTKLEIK
PGT-145 (4995_P16) (antibody), sequence (VH): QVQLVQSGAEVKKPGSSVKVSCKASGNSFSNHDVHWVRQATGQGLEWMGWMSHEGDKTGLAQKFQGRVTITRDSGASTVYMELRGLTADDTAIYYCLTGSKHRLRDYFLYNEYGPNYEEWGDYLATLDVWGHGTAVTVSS
PGT-145 (4995_P16) (antibody), sequence (VL): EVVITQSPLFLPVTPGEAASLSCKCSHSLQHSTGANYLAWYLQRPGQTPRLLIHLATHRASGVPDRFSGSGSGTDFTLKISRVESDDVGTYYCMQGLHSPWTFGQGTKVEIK
4993_K13 (PGT-141) (antibody), sequence (VH): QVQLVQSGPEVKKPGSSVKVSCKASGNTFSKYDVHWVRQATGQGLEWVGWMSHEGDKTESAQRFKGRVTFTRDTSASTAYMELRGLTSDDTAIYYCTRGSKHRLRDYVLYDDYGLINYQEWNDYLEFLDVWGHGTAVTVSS
4993_K13 (PGT-141) (antibody), sequence (VL): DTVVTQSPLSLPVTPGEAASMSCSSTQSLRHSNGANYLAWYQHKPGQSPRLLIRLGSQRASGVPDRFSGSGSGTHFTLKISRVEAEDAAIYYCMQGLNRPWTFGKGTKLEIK
PGT-142 (4995_E20) (antibody), sequence (VH): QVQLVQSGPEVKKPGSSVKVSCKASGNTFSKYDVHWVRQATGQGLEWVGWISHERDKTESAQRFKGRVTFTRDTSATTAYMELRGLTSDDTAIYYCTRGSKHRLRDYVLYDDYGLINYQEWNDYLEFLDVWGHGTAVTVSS
PGT-144 (4970_K22) (antibody), sequence (VH): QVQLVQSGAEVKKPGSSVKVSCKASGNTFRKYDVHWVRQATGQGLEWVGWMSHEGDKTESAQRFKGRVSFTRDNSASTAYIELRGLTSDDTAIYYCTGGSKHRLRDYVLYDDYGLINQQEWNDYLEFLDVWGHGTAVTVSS
PGT-144 (4970_K22) (antibody), sequence (VL): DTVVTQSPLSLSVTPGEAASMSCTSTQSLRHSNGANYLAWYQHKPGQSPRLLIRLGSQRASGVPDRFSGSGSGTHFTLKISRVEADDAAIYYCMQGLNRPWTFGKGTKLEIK

Substance | IC50, pseudovirus neutralization [1] [µg/mL] | IC50, pseudovirus neutralization [2] [µg/mL] | IC50 [3] [µg/mL] | IC50 [4] [µg/mL] | IC50 [5] [µg/mL] | IC50, pseudovirus neutralization [13] [µg/mL] | IC50 (µg/mL), pseudovirus neutralization [14] [µg/mL] | IC50 (µg/mL), single-round pseudovirus neutralization [15] [µg/mL] | IC50, pseudovirus neutralization [16] [µg/mL] | IC50 (µg/mL), single-round pseudovirus neutralization [17] [µg/mL] | IC50 (µg/mL), pseudovirus neutralization [18] [µg/mL] | IC50 (µg/mL), pseudovirus neutralization [19] [µg/mL] | IC50 (µg/mL), pseudovirus neutralization [20] [µg/mL] | other results
PGT-143 (4980_N08) (antibody) | > 50 | 0.386 | > 50 | > 50 | > 50 | – | – | – | – | – | – | – | – | –
PGT-142 (4995_E20) (antibody) | > 50 | 0.221 | > 50 | > 50 | > 50 | – | – | – | – | – | – | – | – | –
5114_A19 (PGT-128) (antibody) | – | – | – | – | – | – | – | – | – | – | – | – | – | IC50 (µg/mL), pseudovirus neutralization [6]: 0.007 µg/mL; IC50 (µg/mL), pseudovirus neutralization [7]: > 50 µg/mL; IC50 (µg/mL), pseudovirus neutralization [8]: 0.011 µg/mL; IC50 (µg/mL), pseudovirus neutralization [9]: > 50 µg/mL; IC50 (µg/mL), pseudovirus neutralization [10]: 0.007 µg/mL; Fold IC50 increase relative to wild-type (pseudovirus neutralization) [11]: 0.8 fold; IC50 (µg/mL), pseudovirus neutralization [12]: 0.149 µg/mL
PGT-144 (4970_K22) (antibody) | > 50 | > 50 | > 50 | > 50 | > 50 | – | – | – | – | – | – | – | – | –
PGT-141 (4964_G22; 4993_K13) (antibody) | > 50 | 0.179 | > 50 | > 50 | > 50 | – | – | – | – | – | – | – | – | –
4970_K22 (PGT-144) (antibody) | – | – | – | – | – | > 50 | > 50 | 2.79 | > 50 | > 50 | 0.562 | > 50 | 14.8 | –
4995_E20 (PGT-142) (antibody) | – | – | – | – | – | > 50 | > 50 | 0.015 | > 50 | 0.367 | 0.076 | 8.17 | 1.15 | –
VRC01 (antibody) | 0.387 | 0.087 | 0.031 | > 50 | 0.344 | 0.034 | 0.553 | 0.325 | 0.155 | 0.135 | 0.056 | 0.063 | > 50 | –
5343_B08 (PGT-135) (antibody) | – | – | – | – | – | – | – | – | – | – | – | – | – | IC50 (µg/mL), pseudovirus neutralization [6]: 0.01 µg/mL; IC50 (µg/mL), pseudovirus neutralization [7]: 30.8 µg/mL; IC50 (µg/mL), pseudovirus neutralization [8]: > 50 µg/mL; IC50 (µg/mL), pseudovirus neutralization [9]: > 50 µg/mL; IC50 (µg/mL), pseudovirus neutralization [10]: 23.5 µg/mL; Fold IC50 increase relative to wild-type (pseudovirus neutralization) [11]: 0.6 fold; IC50 (µg/mL), pseudovirus neutralization [12]: > 50 µg/mL
4995_P16 (PGT-145) (antibody) | – | – | – | – | – | 30.4 | > 50 | 0.028 | 1.9 | 1.36 | 0.144 | 0.081 | 10.4 | –
4980_N08 (PGT-143) (antibody) | – | – | – | – | – | > 50 | > 50 | 0.019 | > 50 | 1.07 | 0.107 | 7.6 | 1.41 | –
5147_N06 (PGT-130) (antibody) | – | – | – | – | – | – | – | – | – | – | – | – | – | IC50 (µg/mL), pseudovirus neutralization [6]: > 50 µg/mL; IC50 (µg/mL), pseudovirus neutralization [7]: > 50 µg/mL; IC50 (µg/mL), pseudovirus neutralization [8]: 24.7 µg/mL; IC50 (µg/mL), pseudovirus neutralization [9]: > 50 µg/mL; IC50, pseudovirus neutralization [21]: 0.474 µg/mL; IC50, pseudovirus neutralization (HIV-1 JRCSF Env (HIV-1)): 0.0089 µg/mL; IC50 (µg/mL), pseudovirus neutralization [10]: 0.019 µg/mL; Fold IC50 increase relative to wild-type (pseudovirus neutralization) [11]: 0.6 fold; IC50 (µg/mL), pseudovirus neutralization [12]: 0.01 µg/mL
5136_H01 (PGT-131) (antibody) | – | – | – | – | – | – | – | – | – | – | – | – | – | IC50 (µg/mL), pseudovirus neutralization [6]: > 50 µg/mL; IC50 (µg/mL), pseudovirus neutralization [7]: > 50 µg/mL; IC50 (µg/mL), pseudovirus neutralization [8]: > 50 µg/mL; IC50 (µg/mL), pseudovirus neutralization [9]: > 50 µg/mL; IC50 (µg/mL), pseudovirus neutralization [10]: 0.756 µg/mL; Fold IC50 increase relative to wild-type (pseudovirus neutralization) [11]: 0.5 fold; IC50 (µg/mL), pseudovirus neutralization [12]: > 50 µg/mL
4993_K13 (PGT-141) (antibody) | – | – | – | – | – | > 50 | > 50 | 0.022 | > 50 | 0.628 | 0.222 | 4.69 | 5.15 | –
PGT-145 (4995_P16) (antibody) | 1.76 | 3.48 | > 50 | > 50 | 6.6 | – | – | – | – | – | – | – | – | –
